Starred links: 1 amine or outer side, 2 acyl side, 3 side chain; linkers in the order of their positions; H or OH if unused. Positions of bridges follow the written chain, without caps; N, C: chain ends. Non-standard residues stand in square brackets, D forms with d. No end group written: not given here. TATA = O=C(CC[*:1])N1CN(C(=O)CC[*:2])CN(C(=O)CC[*:3])C1; Phe(3-F) = N[C@@H](Cc1cccc(F)c1)C(=O)O; Phe(4-F) = N[C@@H](Cc1ccc(F)cc1)C(=O)O; 1Nal = N[C@@H](Cc1cccc2ccccc12)C(=O)O; β3hR = N=C(N)NCCC[C@H](N)CC(=O)O
B1: JS33 (rsCF^4…^bCR) (peptide)
peptide: H-[dR][dS]C[Phe(4-F)]RLPCHQL[β3hR]CR-NH2
modifications: linker 3-8-13 via TATA
SMILES: CC(C)C[C@@H]1NC(=O)[C@H](CCC(N)=O)NC(=O)[C@H](Cc2c[nH]cn2)NC(=O)[C@@H]2CSCCC(=O)N3CN(CN(C3)C(=O)CCSC[C@H](NC(=O)[C@@H](CO)NC(=O)[C@H](N)CCCNC(=N)N)C(=O)N[C@@H](Cc3ccc(F)cc3)C(=O)N[C@@H](CCCNC(=N)N)C(=O)N[C@@H](CC(C)C)C(=O)N3CCC[C@H]3C(=O)N2)C(=O)CCSC[C@@H](C(=O)N[C@@H](CCCNC(=N)N)C(N)=O)NC(=O)C[C@H](CCCNC(=N)N)NC1=O
notes: rs is D-Arg-D-Ser; F^4F is 4-fluoro-phenylalanine
B2: JS35 (rsCF^4…^bCR) (peptide)
peptide: H-[dR][dS]C[Phe(4-F)]RLPCRQL[β3hR]CR-NH2
modifications: linker 3-8-13 via TATA
SMILES: CC(C)C[C@@H]1NC(=O)[C@H](CCC(N)=O)NC(=O)[C@H](CCCNC(=N)N)NC(=O)[C@@H]2CSCCC(=O)N3CN(CN(C3)C(=O)CCSC[C@H](NC(=O)[C@@H](CO)NC(=O)[C@H](N)CCCNC(=N)N)C(=O)N[C@@H](Cc3ccc(F)cc3)C(=O)N[C@@H](CCCNC(=N)N)C(=O)N[C@@H](CC(C)C)C(=O)N3CCC[C@H]3C(=O)N2)C(=O)CCSC[C@@H](C(=O)N[C@@H](CCCNC(=N)N)C(N)=O)NC(=O)C[C@H](CCCNC(=N)N)NC1=O
B3: JS34 (rsCF^4…) (peptide)
peptide: H-[dR][dS]C[Phe(4-F)]RLPCHQLRCR-NH2
modifications: linker 3-8-13 via TATA
SMILES: CC(C)C[C@@H]1NC(=O)[C@H](CCC(N)=O)NC(=O)[C@H](Cc2c[nH]cn2)NC(=O)[C@@H]2CSCCC(=O)N3CN(CN(C3)C(=O)CCSC[C@H](NC(=O)[C@@H](CO)NC(=O)[C@H](N)CCCNC(=N)N)C(=O)N[C@@H](Cc3ccc(F)cc3)C(=O)N[C@@H](CCCNC(=N)N)C(=O)N[C@@H](CC(C)C)C(=O)N3CCC[C@H]3C(=O)N2)C(=O)CCSC[C@@H](C(=O)N[C@@H](CCCNC(=N)N)C(N)=O)NC(=O)[C@H](CCCNC(=N)N)NC1=O
B4: JS36 (rs…^bCR) (peptide)
peptide: H-[dR][dS]CFRLPCHQL[β3hR]CR-NH2
modifications: linker 3-8-13 via TATA
B5: JS33-R (rsCF^4…^bC) (peptide)
peptide: H-[dR][dS]C[Phe(4-F)]RLPCHQL[β3hR]C-NH2
modifications: linker 3-8-13 via TATA
SMILES: CC(C)C[C@@H]1NC(=O)[C@H](CCC(N)=O)NC(=O)[C@H](Cc2c[nH]cn2)NC(=O)[C@@H]2CSCCC(=O)N3CN(CN(C3)C(=O)CCSC[C@H](NC(=O)[C@@H](CO)NC(=O)[C@H](N)CCCNC(=N)N)C(=O)N[C@@H](Cc3ccc(F)cc3)C(=O)N[C@@H](CCCNC(=N)N)C(=O)N[C@@H](CC(C)C)C(=O)N3CCC[C@H]3C(=O)N2)C(=O)CCSC[C@@H](C(N)=O)NC(=O)C[C@H](CCCNC(=N)N)NC1=O
B6: FXII618 variant with P in position six replaced by S (peptide)
peptide: RCFRLSCRQLRCRW-NH2
modifications: linker 2-7-12 via TATA; N-terminus assumed
SMILES: CC(C)C[C@@H]1NC(=O)[C@H](CCC(N)=O)NC(=O)[C@H](CCCNC(=N)N)NC(=O)[C@@H]2CSCCC(=O)N3CN(CN(C3)C(=O)CCSC[C@H](NC(=O)[C@@H](N)CCCNC(=N)N)C(=O)N[C@@H](Cc3ccccc3)C(=O)N[C@@H](CCCNC(=N)N)C(=O)N[C@@H](CC(C)C)C(=O)N[C@@H](CO)C(=O)N2)C(=O)CCSC[C@@H](C(=O)N[C@@H](CCCNC(=N)N)C(=O)N[C@@H](Cc2c[nH]c3ccccc23)C(N)=O)NC(=O)[C@H](CCCNC(=N)N)NC1=O
B7: peptide 4 (peptide 2, Phe3 to tyrosine) (peptide)
peptide: RCYRLPCRQLRCRW-NH2
modifications: linker 2-7-12 via TATA; N-terminus assumed
SMILES: CC(C)C[C@@H]1NC(=O)[C@H](CCC(N)=O)NC(=O)[C@H](CCCNC(=N)N)NC(=O)[C@@H]2CSCCC(=O)N3CN(CN(C3)C(=O)CCSC[C@H](NC(=O)[C@@H](N)CCCNC(=N)N)C(=O)N[C@@H](Cc3ccc(O)cc3)C(=O)N[C@@H](CCCNC(=N)N)C(=O)N[C@@H](CC(C)C)C(=O)N3CCC[C@H]3C(=O)N2)C(=O)CCSC[C@@H](C(=O)N[C@@H](CCCNC(=N)N)C(=O)N[C@@H](Cc2c[nH]c3ccccc23)C(N)=O)NC(=O)[C@H](CCCNC(=N)N)NC1=O
notes: Number tied to residue by the order of the list
B8: peptide 5 (peptide 2, Phe3 to leucine) (peptide)
peptide: RCLRLPCRQLRCRW-NH2
modifications: linker 2-7-12 via TATA; N-terminus assumed
SMILES: CC(C)C[C@@H]1NC(=O)[C@H](CCC(N)=O)NC(=O)[C@H](CCCNC(=N)N)NC(=O)[C@@H]2CSCCC(=O)N3CN(CN(C3)C(=O)CCSC[C@H](NC(=O)[C@@H](N)CCCNC(=N)N)C(=O)N[C@@H](CC(C)C)C(=O)N[C@@H](CCCNC(=N)N)C(=O)N[C@@H](CC(C)C)C(=O)N3CCC[C@H]3C(=O)N2)C(=O)CCSC[C@@H](C(=O)N[C@@H](CCCNC(=N)N)C(=O)N[C@@H](Cc2c[nH]c3ccccc23)C(N)=O)NC(=O)[C@H](CCCNC(=N)N)NC1=O
notes: as for B7
B9: peptide 9 (peptide 2, Phe3 to proline) (peptide)
peptide: RCPRLPCRQLRCRW-NH2
modifications: linker 2-7-12 via TATA; N-terminus assumed
SMILES: CC(C)C[C@@H]1NC(=O)[C@H](CCC(N)=O)NC(=O)[C@H](CCCNC(=N)N)NC(=O)[C@@H]2CSCCC(=O)N3CN(CN(C3)C(=O)CCSC[C@H](NC(=O)[C@@H](N)CCCNC(=N)N)C(=O)N3CCC[C@H]3C(=O)N[C@@H](CCCNC(=N)N)C(=O)N[C@@H](CC(C)C)C(=O)N3CCC[C@H]3C(=O)N2)C(=O)CCSC[C@@H](C(=O)N[C@@H](CCCNC(=N)N)C(=O)N[C@@H](Cc2c[nH]c3ccccc23)C(N)=O)NC(=O)[C@H](CCCNC(=N)N)NC1=O
notes: as for B7
B10: peptide 10 (peptide 2, Arg4 to lysine) (peptide)
peptide: RCFKLPCRQLRCRW-NH2
modifications: linker 2-7-12 via TATA; N-terminus assumed
SMILES: CC(C)C[C@@H]1NC(=O)[C@H](CCC(N)=O)NC(=O)[C@H](CCCNC(=N)N)NC(=O)[C@@H]2CSCCC(=O)N3CN(CN(C3)C(=O)CCSC[C@H](NC(=O)[C@@H](N)CCCNC(=N)N)C(=O)N[C@@H](Cc3ccccc3)C(=O)N[C@@H](CCCCN)C(=O)N[C@@H](CC(C)C)C(=O)N3CCC[C@H]3C(=O)N2)C(=O)CCSC[C@@H](C(=O)N[C@@H](CCCNC(=N)N)C(=O)N[C@@H](Cc2c[nH]c3ccccc23)C(N)=O)NC(=O)[C@H](CCCNC(=N)N)NC1=O
B11: peptide 15 (peptide 2, Pro6 to alanine) (peptide)
peptide: RCFRLACRQLRCRW-NH2
modifications: linker 2-7-12 via TATA; N-terminus assumed
SMILES: CC(C)C[C@@H]1NC(=O)[C@H](CCCNC(=N)N)NC(=O)[C@H](Cc2ccccc2)NC(=O)[C@@H](NC(=O)[C@@H](N)CCCNC(=N)N)CSCCC(=O)N2CN3CN(C2)C(=O)CCSC[C@@H](C(=O)N[C@@H](CCCNC(=N)N)C(=O)N[C@@H](Cc2c[nH]c4ccccc24)C(N)=O)NC(=O)[C@H](CCCNC(=N)N)NC(=O)[C@H](CC(C)C)NC(=O)[C@H](CCC(N)=O)NC(=O)[C@H](CCCNC(=N)N)NC(=O)[C@H](CSCCC3=O)NC(=O)[C@H](C)NC1=O
B12: peptide 57 (peptide 2, fluorine in meta-position of Phe3) (peptide)
peptide: RC[Phe(3-F)]RLPCRQLRCRW-NH2
modifications: linker 2-7-12 via TATA
B13: FXII618 variant with F in position three replaced by 1-naphthylalanine (peptide)
peptide: H-RC[1Nal]RLPCRQLRCRW-NH2
modifications: linker 2-7-12 via TATA
B14: FXII618 variant with F in position three replaced by 3-benzothienylalanine (peptide)
peptide: H-RC[3‑benzothienylalanine]RLPCRQLRCRW-NH2
modifications: linker 2-7-12 via TATA
B15: peptide 62 (bicyclic peptide without the N-terminal arginine) (peptide)
peptide: CFRLPCRQLRCR-NH2
modifications: linker 1-6-11 via TATA; N-terminus assumed
SMILES: CC(C)C[C@@H]1NC(=O)[C@H](CCC(N)=O)NC(=O)[C@H](CCCNC(=N)N)NC(=O)[C@@H]2CSCCC(=O)N3CN(CN(C3)C(=O)CCSC[C@H](N)C(=O)N[C@@H](Cc3ccccc3)C(=O)N[C@@H](CCCNC(=N)N)C(=O)N[C@@H](CC(C)C)C(=O)N3CCC[C@H]3C(=O)N2)C(=O)CCSC[C@@H](C(=O)N[C@@H](CCCNC(=N)N)C(N)=O)NC(=O)[C@H](CCCNC(=N)N)NC1=O
B16: peptide 63 (bicyclic peptide without the C-terminal arginine) (peptide)
peptide: RCFRLPCRQLRC-NH2
modifications: linker 2-7-12 via TATA; N-terminus assumed
SMILES: CC(C)C[C@@H]1NC(=O)[C@H](CCC(N)=O)NC(=O)[C@H](CCCNC(=N)N)NC(=O)[C@@H]2CSCCC(=O)N3CN(CN(C3)C(=O)CCSC[C@H](NC(=O)[C@@H](N)CCCNC(=N)N)C(=O)N[C@@H](Cc3ccccc3)C(=O)N[C@@H](CCCNC(=N)N)C(=O)N[C@@H](CC(C)C)C(=O)N3CCC[C@H]3C(=O)N2)C(=O)CCSC[C@@H](C(N)=O)NC(=O)[C@H](CCCNC(=N)N)NC1=O

Key:
[1] = molecular target: T1, human β-FXIIa (HFXIIAB; Molecular Innovations) (human, UniProt P00748 354-362; P00748 373-615, limits assumed); test: protease inhibition assay
T1 construct: domain: catalytic domain; Bought; also called human b-FXIIa; human FXIIa
T1 sequence (P00748 373-615 limits assumed, one chain of several): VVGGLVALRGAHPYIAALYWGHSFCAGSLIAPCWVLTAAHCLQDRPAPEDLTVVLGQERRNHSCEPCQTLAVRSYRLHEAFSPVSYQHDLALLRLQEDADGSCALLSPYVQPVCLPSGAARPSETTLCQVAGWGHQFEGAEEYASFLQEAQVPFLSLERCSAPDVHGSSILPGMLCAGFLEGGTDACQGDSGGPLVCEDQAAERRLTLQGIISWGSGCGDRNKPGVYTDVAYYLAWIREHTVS

[2] = molecular target: T1, human β-FXIIa (HFXIIAB; Molecular …); test: protease inhibition assay (FIG. 6)
[3] = molecular target: T1, human β-FXIIa (HFXIIAB; Molecular …); test: protease inhibition assay (Table in FIG. 6)
[4] = molecular target: T1, human β-FXIIa (HFXIIAB; Molecular …); test: protease inhibition assay; remark: listed apart in the source
[5] = molecular target: T1, human β-FXIIa (HFXIIAB; Molecular …); test: protease inhibition assay, fluorogenic substrate

Binder | Ki [1] [nM] | Ki [3] [nM] | other results
B1 | 0.36 | – | –
B2 | 0.32 | – | –
B3 | 0.64 | – | –
B4 | 1 | – | –
B5 | 0.4 | – | –
B6 | – | – | Ki [2]: < 100 nM
B7 | – | < 100 | fold reduction of activity vs peptide 2 [4]: > 2 fold
B8 | – | < 100 | fold reduction of activity vs peptide 2 [4]: > 2 fold
B9 | – | < 100 | –
B10 | – | – | Ki [5]: 283 nM; fold reduction of activity vs peptide 2 [4]: 10 fold
B11 | – | – | Ki [2]: < 100 nM; fold reduction of activity vs peptide 2 [4]: < 2 fold
B12 | – | < 100 | –
B13 | – | < 50 | –
B14 | – | < 50 | –
B15 | – | – | Ki [5]: 932 nM
B16 | – | – | Ki [5]: 28.8 nM

— patent publication US20180118786A1 (ECOLE POLYTECHNIQUE FEDERALE DE LAUSANNE EPFL, published 2018)
